Measurements reported in article PMC8599861 (2021).

How the values were obtained:
[1] = molecular target: T1, Depupylase Dop from Corynebacterium glutamicum, wild type (Corynebacterium glutamicum); assay: ITC
T1 chain: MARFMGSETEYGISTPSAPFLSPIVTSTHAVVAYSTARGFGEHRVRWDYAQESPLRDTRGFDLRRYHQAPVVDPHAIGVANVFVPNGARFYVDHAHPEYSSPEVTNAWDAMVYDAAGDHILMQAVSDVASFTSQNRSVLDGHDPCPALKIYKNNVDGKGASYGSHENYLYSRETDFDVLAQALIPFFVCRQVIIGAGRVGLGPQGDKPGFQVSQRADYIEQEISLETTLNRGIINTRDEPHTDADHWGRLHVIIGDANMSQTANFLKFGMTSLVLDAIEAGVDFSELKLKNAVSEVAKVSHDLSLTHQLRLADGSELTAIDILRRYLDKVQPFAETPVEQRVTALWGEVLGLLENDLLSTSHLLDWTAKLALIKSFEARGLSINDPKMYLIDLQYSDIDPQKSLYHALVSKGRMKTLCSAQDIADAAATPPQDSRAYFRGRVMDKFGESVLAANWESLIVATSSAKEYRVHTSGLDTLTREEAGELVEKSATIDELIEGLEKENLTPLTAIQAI

[2] = molecular target: CgluDopGS, Dop-loop variant of Dop from Corynebacterium glutamicum (Dop-loop H43-I77 replaced with (GS)4) (Corynebacterium glutamicum); assay: ITC

B1: Prokaryotic ubiquitin-like protein Pup from Corynebacterium glutamicum with C-terminal glutamate (natural protein)
chain: MNAKQTQIMGGGGRDEDNAEDSAQASGQVQINTEGVDSLLDEIDGLLENNAEEFVRSYVQKGGE
Kd [1]: 186 nM | Kd [2]: 76 nM
